Reference: patent US10877024B2, “Methods of determining interferon having direct inhibitory effects on tumors and uses thereof” (SUPERLAB FAR EAST LIMITED, priority 2015, dated 2020)

How the values were obtained:
SW620 tumor cells = test: Cell viability, MTT assay, 1-6 days; type: cell-based, human; conditions: 10 μg/ml
Method: The cell survival rate was evaluated in a standard MTT assay [3-(4,5-dimethylthiazol-2-yl)-2,5-diphenyltetrazolium bromide assay, Sigma, St. Louis, Mo.). For the assay, about 20 μl MTT (at 4 mg/ml) was added to each well. The cells were incubated at 37° C. for 4 hr. After that, the supernatant of each well was drawn off carefully and then an equal volume (150 microliter) of dimethyl sulfoxide (DMSO) was added to each well and mixed thoroughly on a shaker for 15 min. The absorbance from the plates was read at 595 nm with a Thermo Scientific Microplate Reader (Thermo Fisher Scientific Inc., Lowell, Mass.). The relative cell viability was calculated as follows: Cell viability=(Treated group(OD595) minus blank(OD595))/(Control group(OD595) minus blank(OD595))×100%.

[1] = test system: phosphorylation of STAT1 (Tyr701), STAT2 (Tyr690), and STAT3 (Tyr705); test: p-STAT induction after B18R pre-incubation, Western blot; type: cell-based, human; conditions: IFN 1 ng/ml, B18R 10 ng/ml, 30 min, compared to IFNα-2b
A549 xenograft tumors = test: Tumor growth of A549 xenografts in nude mice; type: in vivo, BALB/c nude mice; conditions: 100 μg/100 μl per mouse intratumorally, every other day, 12 times; vs PBS
Method: This experiment was conducted in accordance to the National Institutes of Health Guide for the Care and Use of Laboratory Animals. Female BALB/c nude mice, 4-5 weeks old, were obtained from Shanghai Experimental Animal Center (Shanghai, China). About 5×10^6 A549 cells were subcutaneously injected into each mouse to establish xenograft tumors. […] The tumors were measured every three (3) days and the tumor volumes were calculated as follows: tumor volume (mm^3)=(length×width^2)/2. Data are shown as Mean±SD (n=8).

[2] = test system: beta-catenin/TCF mediated transcriptional activity; test: Beta-catenin/TCF transcription reporter assay (TOPFlash); type: cell-based, human; conditions: 10 mcg/ml, 24 hours
Method: The effect of rSIFN-co on Wnt/Beta-catenin signaling in vitro was determined. Cancer cells were plated in 96-well plates (at 1×10^4 cells per well), and incubated for 12 hours, after which they were transiently transfected with 100 ng TOPFlash (Millipore Corporation, Billerica, Mass., USA). […] After interferon treatment for 24 hours, luciferase assay was performed using the Dual Luciferase Assay System kit according to the manufacturer's protocols (Cat #:E1960, Promega). Relative luciferase activity was reported as a ratio of firefly/renilla luciferase activity. Experiments were performed in triplicate.

KLF4 = test: qPCR of tumor suppressor gene; type: cell-based, human; conditions: 10 mcg/ml, 24 hr
Excerpt: (§1) After 24 hr of treatment, total cellular mRNA was isolated using TRIZOL Reagent, and cDNA was synthesized, and further subjected to qPRC using specific primers for DKK3, KLF4 and BATF2. The following primers were used: for BATF2, sense primers: 5′-[…]-3′ (SEQ ID NO: 16) and antisense primers: 5′-[…]-3′ (SEQ ID NO: 17); for DKK3, sense primers: 5′-[…]-3′(SEQ ID NO: 18) and antisense primers: 5′-[…]-3′ (SEQ ID NO: 19); for KLF4, sense primers: 5′-[…]-3′ (SEQ ID NO: 20) and antisense primers: 5′-[…]-3′ (SEQ ID NO: 21).
(§2) The experiment was conducted in triplicate and normalized with the mock control group. Results, shown in FIG. 12, were expressed as relative mRNA expression level in relation to that of GAPDH.

BATF2 = test: qPCR of tumor suppressor gene; type: cell-based, human; conditions: A549 cells, 10 mcg/ml, 24 hr
Excerpt: as §1, §2

[3] = test system: human hepatoma SMMC-7721 xenografts; test: rSIFN-co on human hepatoma SMMC-7721 xenografts in nude mice; conditions: for TV(mm^3, mean ± SD) (D 0): day 0; for % Inhibition / T/C (%) / TV(mm^3, mean ± SD) (D 21): day 21
Method: The test article was used without dilution. It was stored at 4° C. until thawed for injection.
The animals used were 4-6 weeks old male BALB/cA nu/nu mice, weighing about 23±2 g, obtained from the Shanghai Institute of Materia Medica (Shanghai, P.R. China). […] Animals were housed 6 to a cage. They were ear-marked with ear hole punch identification. The room temperature was maintained at 25° C.±+1° C. Lighting was set at 12 hr on and 12 hr off. Food was provided ad libitum. City tap water, filtered with a 5 micrometer (μm) filter, was provided to the animals ad libitum via water bottles.
The test article was administered in a volume of 0.05 ml-0.15 ml per mouse per treatment, depending on the group to which the animal was assigned. […] Normal saline was injected in a volume of 0.15 ml per mouse, which was used as vehicle control.
Animals were assigned to treatment groups randomly. Initially, all animals were placed in one large animal cage. For assignment to the study, they were later separately housed, with 6 animals per cage per treatment group. Groups 1 and 2 are Control groups in which the animals were each administered the vehicle every other day after the first treatment. […] Tumor growth was monitored by measuring the length and width of each tumor twice a week during the course of the study. Each animal was also weighed twice a week during the course of the study.
Before commencement of this study, the xenografts were passaged twice in nude mice. Under sterile conditions, well-grown tumors were cut into 1.5 mm^3 fragments and one such fragment was injected by trocar needle into the right flank of each study animal. […] Individual tumor size (length and width) was measured twice per week with microcalipers. Tumor volume (V) was calculated using the formula: V=(length×width^2)/2. Individual relative tumor volume (RTV) was calculated using the formula: RTV=Vt/V0, where Vt is the tumor volume on the day of measurement and V0 is the tumor volume on the day of first treatment. Therapeutic effect of the test article or control article was expressed in terms of T/C (%), using the formula: T/C (%)=(mean RTV of the treated group/mean RTV of the control group)×100%; and in terms of % Inhibition, using the formula: % Inhibition=100%−T/C %.

[4] = test system: STAT1 (Tyr701), STAT2 (Tyr690), STAT3(Tyr705); test: STAT phosphorylation by Western Blot; type: cell-based, human; conditions: A549 cells and Hela cells, 10 μg/ml, 0-240 minutes
Excerpt: After treatment, the cells were collected, cellular proteins were extracted and loaded onto SDS-PAGE […] for Western Blot analysis to observe the phosphorylation of STAT1 (Tyr701), STAT2 (Tyr690), and STAT3(Tyr705). GAPDH was used as a loading control.
The primary antibodies used were: STAT1 (1:1000, Cat #: 9175S), Tyr701 phosphorylated-STAT1 (1:1000, Cat #: 9167S), STAT2 (1:500, Cat #4594), Tyr690 phosphorylated-STAT2 (1:1000, Cat #: 441S), STAT3 (1:1000, Cat #: 9132), Tyr705 phosphorylated-STAT3 (1:1000, Cat #: 9145S). Anti-mouse (Cat #:sc-2005) or rabbit (Cat #: sc-2004) or goat (Cat #: sc-2020) HRP-conjugated secondary antibodies (Santa Cruz Technology, Santa Cruz, Calif.) were used at concentrations of 1:2000. Blots were visualized by use of Luminescence/Fluorescence Imaging LAS4000 System (GE Healthcare Life Sciences, USA) with super signal west pico chemiluminescnet substrate kit (Thermo Scientific, USA).

FZD6 = test: qPCR of Wnt-related receptor mRNA; type: cell-based, human; conditions: 10 μg/ml, 24 hr
Method: The regulation of LRP6/FZD6 by rSIFN-co was investigated. This was conducted by qPCR as performed in Example 9. […] After 24 hr of treatment, total cellular mRNA was isolated using TRIZOL Reagent, and cDNA was subjected to qPCR using specific primers of LRP6 and FZD6. The primers used were: LRP6 sense primer: 5′-[…]-3′ (SEQ ID NO: 4) and antisense primer: 5′-[…]-3′ (SEQ ID NO: 5), and FZD6 sense primer: 5′-[…]-3′ (SEQ ID NO: 6) and antisense primer: 5′-[…]-3′ (SEQ ID NO: 7). Experiments were conducted in triplicate and normalized with the Mock control group. Results were recorded as relative mRNA level of either LRP6 or FZD6 relative to GAPDH.

[5] = 0.05 mg/mouse i.t. every other day
[6] = 0.10 mg/mouse i.t. every other day
[7] = 0.15 mg/mouse i.t. every other day

B1: rSIFN-co: Recombinant super-compound interferon; amino acid sequence SEQ ID NO: 1 (same as INFERGEN), encoded by novel nucleotide sequence SEQ ID NO: 2 (protein)
chain: MCDLPQTHSLGNRRALILLAQMRRISPFSCLKDRHDFGFPQEEFDGNQFQKAQAISVLHEMIQQTFNLFSTKDSSAAWDESLLEKFYTELYQQLNDLEACVIQEVGVEETPLMNVDSILAVKKYFQRITLYLTEKKYSPCAWEVVRAEIMRSFSLSTNLQERLRRKE
modifications: Amino acid sequence of recombinant interferon
In the case of B1, the “cell viability over time (MTT)” value (SW620 tumor cells) is reported as “strongly decreased cell viability of SW620 cells in a time-dependent manner”, the “induction of phosphorylation on STAT1/2/3 after B18R pre-incubation” value ([1]; A549 cells) is reported as “greater induction of phosphorylation on STAT1/2/3” and the “induction of phosphorylation on STAT1/2/3 after B18R pre-incubation” value ([1]; Hela cells) is reported as “greater induction of phosphorylation on STAT1/2/3”. For the same molecule, the “inhibition of tumor growth (tumor volume)” value (A549 xenograft tumors) was “almost completely inhibit growth of established tumors”, the Firefly/Renilla ratio ([2]; A549 cells, Control about 310) was “about 100” and the Firefly/Renilla ratio ([2]; H460 cells, Control about 450) was “about 280”. The Firefly/Renilla ratio ([2]; H1299 cells, Control about 800) was “about 500”, the Firefly/Renilla ratio ([2]; HT-29 cells, Control about 300) was “about 200” and the Firefly/Renilla ratio ([2]; SW620 cells, Control about 1500) was “less than 100”. For the same molecule, the “relative mRNA expression level of KLF4” value (KLF4; A549 cells) was “dramatically increased”, the “relative mRNA expression level of KLF4” value (KLF4; SW620 cells) was “dramatically increased as compared to control and IFN alpha-2b treatment” and the “relative mRNA expression level of BATF2” value (BATF2) was “dramatically increased”. The “TV(mm^3, mean ± SD) (D 0)” value [3, 5] was 124 ± 26 mm^3, the “% Inhibition” value [3, 5] was 48.01% and the “T/C (%)” value [3, 5] was 51.99%. For the same molecule, the “TV(mm^3, mean ± SD) (D 21)” value [3, 5] was 592 ± 139 mm^3, the “TV(mm^3, mean ± SD) (D 0)” value [3, 6] was 124 ± 15 mm^3 and the “% Inhibition” value [3, 6] was 52.20%. The “T/C (%)” value [3, 6] was 47.80%, the “TV(mm^3, mean ± SD) (D 21)” value [3, 6] was 573 ± 287 mm^3 and the “TV(mm^3, mean ± SD) (D 0)” value [3, 7] was 123 ± 20 mm^3. For the same molecule, the “% Inhibition” value [3, 7] was 56.80%, the “T/C (%)” value [3, 7] was 43.20% and the “TV(mm^3, mean ± SD) (D 21)” value [3, 7] was 505 ± 226 mm^3. The “phosphorylation patterns for STAT1, STAT2 and STAT3 (JAK/STATs signaling level)” value [4] was “no different from that mediated by IFN alpha-2b”, the “relative expression of FZD6 mRNA” value (FZD6; A549 cells) was “significant reduction” and the “relative expression of FZD6 mRNA” value (FZD6; H460 cells) was “significant reduction”. The “relative expression of FZD6 mRNA” value (FZD6; HT-29 cells) was “significant reduction” and the “relative expression of FZD6 mRNA” value (FZD6; SW620 cells) was “significant reduction”.
